In the assay the target is cbx3_mouse Cbx3 (UniProt P23198).

The results in this text go back to IntAct's records for PubMed 22892567.

Sequence of cbx3_mouse Cbx3 (P23198 whole entry): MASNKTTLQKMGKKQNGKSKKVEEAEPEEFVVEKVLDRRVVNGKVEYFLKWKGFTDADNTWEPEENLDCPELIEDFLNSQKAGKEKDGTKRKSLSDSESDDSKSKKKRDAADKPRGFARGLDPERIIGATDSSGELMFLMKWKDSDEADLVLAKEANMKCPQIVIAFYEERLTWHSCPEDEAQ

In the case of “Voltage-dependent L-type calcium channel subunit beta-4 (Rattus norvegicus (Rat)) (from UniProt D4A055) P220A”, the “effect of a mutation on the interaction” value was “disrupting interaction strength”. With “Voltage-dependent L-type calcium channel subunit beta-4 (Rattus norvegicus (Rat)) (from UniProt D4A055) V222A” the entry was “disrupting interaction”.
